Experimental data as given in patent US20240293460A1 (published 2024).

Target: soluble DKK1 peptide P20/HLA-A2 complex (human;, UniProt P61769 21-119; O94907 20-29)
Test: SPR

B1: DKK1-A2 mAb HMB7 (antibody, V domains shown)
VH: EVQLQQSGAELVKPGASVKLSCTASGFNIKDTYMHWVKQRPEQGLEWIGRIDPANGDTKYDPKFQGKATITADTSSNTAYLHLSSLTSEDTAVYYCARGRYYYGTSSFDYWGQGTTLTVSS
VL: DIVMTQSHKFMSTSVGDWVSITCKAWQDVDTAVAWYQQKPGQSPKLLIYWASTRHTGVPDRFTGSGSGTDFTLTISNVQSEDLADYFCQQYSSYPYTFGGGTKLEIK
**Q.** B1 was tested. Which Kd did it give?
**A.** 2.78 µM

B2: DKK1-A2 mAb HMB1 (antibody, V domains shown)
VH: QVQLKESGPGLVAPSQSLSITCTVSGFSLTDFAVTWIRQPPGKGLEWLGVIWGGGSTYYNSALKSRLSISKDNSKSQVFLKMNSLQTDDTAMYYCAKTTPIYFDYDHALDYWGQGTSVTVSS
VL: DVVVTQTPLSLPVSFGDQVSISCRSSQSLTNSYGNTYLSWYLHKPGQSPQLLIYGISNRFSGVPDRFSGSGSGTDFTLKISTIKPEDLGMYYCLQGTHQPYTFGGGTKLEIK
**Q.** With B2 as the binder, how does the Kd read?
**A.** 0.0176 µM
